Assays:
[1] = target: purified human CD5 ectodomain (human) (UniProt P06127); assay: BLI (Octet Red96), antibody on anti-human Fc biosensors, 50 nM CD5 ectodomain, 25 C
[2] = target: human CD5 on cells (MOLT-4 human T lymphoblast cell line; primary human T-cells) (human) (UniProt P06127); assay: flow cytometry on primary human T-cells, antibody titration, fluorophore-conjugated (AF488) secondary anti-IgG, MFI

Response (nm) [1]: 0.67 nm | EC50 (read off the curve) [2]: 30 pM
B1: anti-CD5 antibody 5D7 hIgG1 (humanized version of murine antibody 5D7) (antibody, V domains shown)
VH: QVTLKESGPVLVKPTETLTLTCTFSGFSLSTSGMGVGWIRQAPGKGLEWVAHIWWDDDVYYNPSLKSRLTITKDASKDQVSLKLSSVTAADTAVYYCVRRRATGTGFDYWGQGTLVTVSS
VL: NIVMTQSPSSLSASVGDRVTITCQASQDVGTAVAWYQQKPDQSPKLLIYWTSTRHTGVPDRFTGSGSGTDFTLTISSLQPEDIATYFCHQYNSYNTFGSGTKLEIK
